Measurements taken from publication PMC7145534, “Are the intrinsically disordered linkers involved in SSB binding to accessory proteins?” (Nucleic Acids Research, 2019).
Values joined by “and” are separate entries in the source; they are usually repeats but may differ in a detail not shown here. Equal values may be shown once.

Key:
Escherichia coli PriC = target: T1, Escherichia coli PriC (E. coli, UniProt P23862 1-175); test: ITC; SSB-Ct peptide titrated into PriC; buffer BTP pH 8.0, 10 mM NaCl, 25°C; N fixed to 1 for the values of Table 1; settings: both partners purified
T1 construct: E. coli PriC, replication restart protein; source: E. coli BL21(DE3), plasmid pET11a-EcoPriC (pAM001), purified (Macro-Prep High S, HiPrep Sephacryl S-200 HR)
T1 sequence (looked up): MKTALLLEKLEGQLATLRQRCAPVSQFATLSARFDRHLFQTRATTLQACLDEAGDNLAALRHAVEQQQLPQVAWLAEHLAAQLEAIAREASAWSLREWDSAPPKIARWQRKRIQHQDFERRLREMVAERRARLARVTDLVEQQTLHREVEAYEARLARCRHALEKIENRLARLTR

[1] = target: T2, Escherichia coli RecO protein (E. coli, UniProt P0A7H3 1-242); test: ITC; SSB-Ct peptide (40–50 μM) titrated into SIP (1–2 μM); buffer BTP (20 mM Bis-Tris Propane, 25% glycerol, 1 mM TCEP) pH 8.0, 50 mM NaCl, 25°C; observed association constants; N fixed to 1 for the values of Table 1; settings: both partners purified
T2 construct: E. coli RecO, recombination mediator of the RecF pathway; source: E. coli BL21(DE3)pLysS, plasmid pMCSG7, purified (Ni-NTA, HiTrap Heparin HP) after His-tag cleavage with TEV protease
T2 sequence (looked up): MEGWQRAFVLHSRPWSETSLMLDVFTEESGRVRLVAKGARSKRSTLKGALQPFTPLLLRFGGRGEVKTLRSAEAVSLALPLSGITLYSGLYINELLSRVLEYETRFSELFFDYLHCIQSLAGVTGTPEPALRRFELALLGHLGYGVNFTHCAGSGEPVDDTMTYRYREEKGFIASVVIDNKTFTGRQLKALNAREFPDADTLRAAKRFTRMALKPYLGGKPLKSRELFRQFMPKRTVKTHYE

[2] = target: T3, chi (χ) subunit of DNA polymerase III (E. coli, UniProt P28905 1-147); test: as above; settings: both partners purified
T3 construct: E. coli DNA polymerase III chi subunit; also called χ protein; DNA Pol III (χ)
T3 sequence (P28905 whole entry): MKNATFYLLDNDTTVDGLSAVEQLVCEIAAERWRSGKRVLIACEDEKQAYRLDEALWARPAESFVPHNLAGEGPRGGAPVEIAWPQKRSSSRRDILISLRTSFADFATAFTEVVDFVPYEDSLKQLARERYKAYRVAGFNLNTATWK

Escherichia coli PriA = target: T4, Escherichia coli PriA (E. coli, UniProt P17888 1-732); test: as above; settings: both partners purified
T4 construct: E. coli PriA, replication restart protein
T4 sequence (P17888 whole entry): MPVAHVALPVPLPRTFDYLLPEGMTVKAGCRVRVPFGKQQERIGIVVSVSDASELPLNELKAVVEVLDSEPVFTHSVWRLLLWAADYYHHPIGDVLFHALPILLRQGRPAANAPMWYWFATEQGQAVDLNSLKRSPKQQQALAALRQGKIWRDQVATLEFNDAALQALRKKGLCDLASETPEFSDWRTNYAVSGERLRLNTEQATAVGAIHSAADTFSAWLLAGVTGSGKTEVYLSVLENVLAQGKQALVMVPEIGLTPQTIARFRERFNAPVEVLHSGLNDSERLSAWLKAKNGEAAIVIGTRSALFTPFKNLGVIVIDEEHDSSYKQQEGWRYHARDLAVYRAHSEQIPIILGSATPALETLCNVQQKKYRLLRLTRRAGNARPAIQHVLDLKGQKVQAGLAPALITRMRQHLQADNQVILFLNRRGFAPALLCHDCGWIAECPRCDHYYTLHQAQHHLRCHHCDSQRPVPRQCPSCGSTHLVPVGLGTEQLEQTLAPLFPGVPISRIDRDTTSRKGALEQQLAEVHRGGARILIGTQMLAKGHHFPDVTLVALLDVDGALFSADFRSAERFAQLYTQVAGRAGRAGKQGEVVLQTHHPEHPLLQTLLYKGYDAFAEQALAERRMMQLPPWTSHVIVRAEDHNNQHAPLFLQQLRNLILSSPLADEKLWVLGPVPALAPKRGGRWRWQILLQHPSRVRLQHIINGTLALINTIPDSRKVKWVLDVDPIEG

RecO = settings: 0.35 μM tetramer, BTP pH 7.0, 200 mM NaCl, 25°C, no RecO
Method: Sedimentation velocity experiments were performed with an Optima XL-A analytical ultracentrifuge and An50Ti rotor (Beckman Coulter, Fullerton, CA, USA) at 42 000 rpm (25°C) as described ([50]). The concentrations used were 1–2 μM SIPs, 0.3–0.5 μM SSB tetramers, while monitoring absorbance at 230 or 280 nm. The experiments with SSB-Ct peptides were performed in Buffer BTP at pH 8.0 and 50 mM NaCl. The experiment with SSB proteins and the deletion constructs were performed in Buffer BTP at pH 7.0 and 200 mm NaCl. The sample (380 μl) and buffer (394 μl) were loaded into each sector of an Epon charcoal-filled two-sector centerpiece. Absorbance data were collected by scanning the sample cells at intervals of 0.003 cm. Data were analyzed using SEDFIT, to obtain c(s) distributions ([70]). The c(s) distribution function defines the populations of species with different sedimentation rates and represents a variant of the distribution of Lamm equation solutions ([70]). The density and viscosity of the experimental buffers at 25°C were determined using [sequence] […] The partial specific volume of (dT)70 used was 0.56 ml/g. In the experiments involving more than one species, the partial specific volumes of complexes were calculated assuming additivity using Equation (4), where = number of moles of species ‘i’, = molecular weight of species ‘i’, and = partial specific volume of each species i.(4)
RecO binding to SSB tetramers with portions of the IDL deleted. […] (C) The results of sedimentation velocity experiments, plotted as the c(s) distribution ([70]) for each SSB construct (0.35 μM tetramer) in the absence (black lines) and presence (red lines) of 2.5 molar excess of RecO (3.5 μM) per C-terminus.

[3] = target: T2, Escherichia coli RecO protein; test: ITC; SSB tetramer–(dT)70 complex (9–10 μM) titrated into RecO (1 μM); buffer BTP pH 7.0, 200 mM NaCl, 25°C; N fixed to 4, K and ΔH per C-terminus; settings: both partners purified
[4] = target: T2, Escherichia coli RecO protein; test: ITC; apo SSB tetramer (9–10 μM) titrated into RecO (1 μM); buffer BTP pH 7.0, 200 mM NaCl, 25°C; N fixed to 4 RecO per tetramer, K and ΔH per C-terminus; settings: both partners purified
[5] = target: the molecule itself; test: AUC; sedimentation velocity, 42 000 rpm, 25°C; SSB construct 0.35 μM tetramer alone and with 3.5 μM RecO (2.5 molar excess per C-terminus); buffer BTP pH 7.0, 200 mM NaCl
[6] = target: T5, Escherichia coli RecO protein (E. coli, UniProt P0A7H3 1-242); test: ITC; SSB tetramer (8-10 µM), without DNA, titrated into RecO (1 µM); buffer BTP pH 7.0, 200 mM NaCl, 25°C; N floated, N = RecO per SSB tetramer; ΔH per tip; settings: both partners purified
T5 construct: RecO, E. coli, overexpressed from plasmid pMCSG7; His-tag cleaved with TEV protease; monomeric by sedimentation velocity; source: E. coli BL21(DE3)pLysS, purified (Ni-NTA, HiTrap Heparin HP)
T5 sequence (looked up): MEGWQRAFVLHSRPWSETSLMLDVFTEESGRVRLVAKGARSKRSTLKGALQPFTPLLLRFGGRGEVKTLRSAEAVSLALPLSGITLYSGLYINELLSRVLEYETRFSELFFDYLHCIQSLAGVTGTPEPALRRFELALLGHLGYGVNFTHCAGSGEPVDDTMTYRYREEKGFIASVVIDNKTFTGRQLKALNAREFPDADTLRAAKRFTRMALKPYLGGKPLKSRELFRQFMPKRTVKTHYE

| Molecule | sedimentation coefficient, SSB alone (RecO) | dH (per tip, ΔH/4) [3] | dH (per tip, ΔH/4) [4] | stoichiometry N [5] | other results |
| --- | --- | --- | --- | --- | --- |
| FSGGAQSRPQQSAPAAPSNEPPMDFDDDIPF (peptide, UniProt P0AGE0 148-178, looked up, E. coli SSB, the C-terminal 31 amino acids (acidic tip and 22 amino acids of the IDL); Holds two of the PXXP motifs; source: synthetic peptide; bought: WatsonBio) [SSB-Ct peptide P31 (C-terminal 31 amino acids of E. coli SSB)] |  |  |  |  | dH (Escherichia coli PriC): -2.3 ± 0.1 kcal/mol; dH [1]: -5.1 ± 0.1 kcal/mol; dH [2]: -9.1 ± 0.1 kcal/mol; dH (Escherichia coli PriA): -9.7 ± 0.2 kcal/mol |
| SSBΔ151-166 tetramer (natural protein, E. coli, UniProt P0AGE0 1-178, looked up, E. coli SSB with residues 151-166 of the IDL deleted, acidic tip kept; Two C-terminal PXXP motifs deleted; Used apo and in complex with (dT)70) MASRGVNKVILVGNLGQDPEVRYMPNGGAVANITLATSESWRDKATGEMKEQTEWHRVVLFGKLAEVASEYLRKGSQVYIEGQLRTRKWTDQSGQDRYTTEVVVNVGGTMQMLGGRQGGGAPAGGNIGGGQPQGGWGQPQQPQGGNQFSGGPPMDFDDDIPF | 1.4 S | -8.7 ± 0.1 kcal/mol | -7 ± 0.1 kcal/mol | 4 |  |
| SSBΔ130-166 tetramer (natural protein, E. coli, UniProt P0AGE0 1-178, looked up, E. coli SSB with residues 130-166 of the IDL deleted, acidic tip kept) MASRGVNKVILVGNLGQDPEVRYMPNGGAVANITLATSESWRDKATGEMKEQTEWHRVVLFGKLAEVASEYLRKGSQVYIEGQLRTRKWTDQSGQDRYTTEVVVNVGGTMQMLGGRQGGGAPAGGNIGGGPPMDFDDDIPF |  |  |  |  | Ka [6]: 2e+06 M⁻¹ and 1.5e+06 M⁻¹; stoichiometry N [6]: 3.8 and 4.04 |
| SSBΔ130-166 tetramer (natural protein, E. coli, UniProt P0AGE0 1-178, looked up, E. coli SSB with residues 130-166 of the IDL deleted, acidic tip kept; All three PXXP motifs deleted; Used apo and in complex with (dT)70) MASRGVNKVILVGNLGQDPEVRYMPNGGAVANITLATSESWRDKATGEMKEQTEWHRVVLFGKLAEVASEYLRKGSQVYIEGQLRTRKWTDQSGQDRYTTEVVVNVGGTMQMLGGRQGGGAPAGGNIGGGPPMDFDDDIPF |  | -4.5 ± 0.1 kcal/mol | -2.3 ± 0.1 kcal/mol | 4 |  |
| SSBΔ130-166: SSB tetramer variant with IDL residues 130-166 deleted, retaining the acidic tip (protein) MASRGVNKVILVGNLGQDPEVRYMPNGGAVANITLATSESWRDKATGEMKEQTEWHRVVLFGKLAEVASEYLRKGSQVYIEGQLRTRKWTDQSGQDRYTTEVVVNVGGTMQMLGGRQGGGAPAGGNIGGGPPMDFDDDIPF | 1.3 S |  |  |  |  |
